Measurements from PMC12045370.

What was measured:
[1] = molecular target: microtubules grown from purified bovine brain tubulin (bovine) (UniProt Q6B856); test: optical trap rupture force assay; untreated kinetochores on anti-penta-His beads; dynamic microtubules grown from coverslip-anchored GMPCPP seeds; BRB80, 1 mM GTP, 23°C; force ramp 0.25 pN/s until detachment
[2] = molecular target: microtubules grown from purified bovine brain tubulin (bovine) (UniProt Q6B856); test: optical trap rupture force assay; benzonase-treated kinetochores on anti-penta-His beads; dynamic microtubules grown from coverslip-anchored GMPCPP seeds; BRB80, 1 mM GTP, 23°C; force ramp 0.25 pN/s until detachment

Chain of UniProt Q6B856 (Q6B856 whole entry, looked up): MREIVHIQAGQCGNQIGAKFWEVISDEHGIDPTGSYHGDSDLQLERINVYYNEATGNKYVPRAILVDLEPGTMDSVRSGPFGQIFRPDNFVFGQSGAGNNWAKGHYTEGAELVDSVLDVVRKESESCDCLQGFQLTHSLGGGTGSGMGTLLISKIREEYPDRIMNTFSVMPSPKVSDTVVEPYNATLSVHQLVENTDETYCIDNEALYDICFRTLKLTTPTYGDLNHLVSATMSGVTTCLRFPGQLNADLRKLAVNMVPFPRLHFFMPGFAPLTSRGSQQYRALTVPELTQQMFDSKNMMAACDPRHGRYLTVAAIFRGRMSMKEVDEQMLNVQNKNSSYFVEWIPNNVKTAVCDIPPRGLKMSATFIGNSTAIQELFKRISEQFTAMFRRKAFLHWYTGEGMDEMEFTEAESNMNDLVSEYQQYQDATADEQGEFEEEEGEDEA

Row | median rupture force [1] | median rupture force [2] [pN] | Substance
1 | 7.5 pN | 6.4 | K. marxianus kinetochore particles purified via Dsn1-6His-3M3DK (from UniProt A0ABX6F0Z3 1-547) (complex)
2 | 7.2 | – | S. cerevisiae kinetochore particles purified via Dsn1-6His-3M3DK (from UniProt P40568 1-576) (complex)
